In data set [1] the target is T1, BAFF-R (B-cell activating factor receptor) (human, UniProt Q96RJ3 1-76).
T1 sequence: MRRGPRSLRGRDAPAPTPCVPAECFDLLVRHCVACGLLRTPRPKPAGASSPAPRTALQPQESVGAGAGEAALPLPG
Kind of data set: filter binding.

Data set [2] has as its target T1, BAFF-R (B-cell activating factor …). Kind of data set: EMSA. On the technique in general: In EMSA bound probe runs differently from free probe, usually more slowly.
Data set [3] shares this target. Kind of data set: EMSA. The source holds these as a separate data set.
The target of data set [4] is BCMA (TNFRSF17) (human, UniProt Q02223 1-54). Kind of data set: EMSA.

A word on the Kd: it is the equilibrium constant for the complex coming apart.

Read-outs that look alike come from different tables or passages of the source.

Sequence of BCMA (TNFRSF17) (Q02223 1-54): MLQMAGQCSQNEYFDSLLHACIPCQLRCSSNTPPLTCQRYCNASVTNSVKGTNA

B1: R-22 aptamer (structured_RNA)
RNA: GGGAGGACGAUGCGGAUCCUCCGAAGGUCGCGCCAACGUCACACAUUAAGCUUUUGUUCGUCUGCAGACGACUCGCCCGA
modifications: 2'-F U and C
B1 came in with a binding signal in data set [1] of 3.6 % RNA retained.

B2: R-1-STAT3 27-mer SWAP chimera (structured_RNA)
RNA 1: GGGAGGACGAUGCGGGAGGCUCAACAAUGAUAGAGCCCGCAAUGUUGAUAGUUGUGCCCAGUCUGCAGACGACUGCCCGAUUUUUUUUUCAGUCGUAUCUUUCUGCAGCUUCCGU
RNA 2: GGAAGCUGCAGAAAGAUACGACUGA
modifications: 2'-F U and C in aptamer-antisense strand; S7 3' ga are DNA
In data set [2], B2 gave a dissociation constant Kd of 56 nM.

B3: R-14 aptamer (structured_RNA)
RNA: GGGAGGACGAUGCGGAUAACUAUUGUGCUAGAGGGCUUAUUUAUGUGAGCCGGUUGAUAGUUGCGCAGACGACUCGCCCGA
modifications: 2'-F U and C
In turn, B3 had a binding signal in data set [1] of over 36 % RNA retained. In addition, in data set [2], the Kd was about 96 nM.

B4: R-1-STAT3 27-mer OVH chimera (structured_RNA)
RNA 1: GGGAGGACGAUGCGGGAGGCUCAACAAUGAUAGAGCCCGCAAUGUUGAUAGUUGUGCCCAGUCUGCAGACGACUCGCCCGAUUUUUUUUGAGAACGGAAGCUGCAGAAAGAUACGA
RNA 2: GUAUCUUUCUGCAGCUUCCGUUCUC
modifications: 2'-F U and C in aptamer-sense strand
In the case of B4, the Kd in data set [2] is 35 nM.

B5: R-1 aptamer (structured_RNA)
RNA: GGGAGGACGAUGCGGGAGGCUCAACAAUGAUAGAGCCCGCAAUGUUGAUAGUUGUGCCCAGUCUGCAGACGACUCGCCCGA
modifications: 2'-F U and C
Take B5: in data set [1], the binding signal was over 36 % RNA retained. Further, the equilibrium dissociation constant (Kd) in data set [3] is 54 nM; in data set [2], about 47 nM. Further, the binding result in data set [4] is given as “no binding”.

For the origin of these results see PMC3627597.
